Results from the supplement of paper PMC10724198.
“And” between values parts separate entries of the source, which are not always exact repeats. Equal entries are not always repeated. ± gives the standard deviation of the averaged measurements.

Tests used:
Saccharomyces cerevisiae [1] = test: protein stability index of tFT-peptide fusion in wild type (PSI (0-1 scale)); higher = more stable (slower turnover); conditions: genetic background: wild type
Saccharomyces cerevisiae [2] = test: protein stability index of tFT-peptide fusion in deletion strain of DOA10 (PSI (0-1 scale)); higher = more stable (slower turnover)
Experimental: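 MPS profiling in S. cerevisiae of two library types built from selected 12-aa C-degron peptides (IN1, IN2, LN1, LN3, VN2, R1-R5, W1-W3, Atg1 and Rpa12 C-termini): saturation mutagenesis libraries and C-terminal +1 capping libraries (13 aa). Each peptide is fused to the C-terminus of a sfGFP-mCherry timer, after a GGGS linker. Cells are FACS-sorted into 8 mCherry/sfGFP bins and sequenced. PSI runs from 0 (unstable) to 1 (stable), measured once in wild type and in the das1Δ or doa10Δ background.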

Saccharomyces cerevisiae [3] = test: protein stability index of tFT-peptide fusion (C-terminal peptide) (PSI (0-1 scale)); higher = more stable (slower turnover)
Experimental: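 MPS profiling in S. cerevisiae of the tFT-X12 degron library: putative degron peptides plus stable controls, 12 aa, fused to the C-terminus of a sfGFP-mCherry timer. Cells are FACS-sorted into 8 mCherry/sfGFP bins and deep-sequenced. PSI runs from 0 (unstable) to 1 (stable). Backgrounds are wild type, das1Δ and doa10Δ at 30 °C, and wild type, das1Δ, cdc34-1 and cdc53-1 at 37 °C; 2-3 technical replicates each.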

Saccharomyces cerevisiae [4] = test: as above; conditions: genetic background: wild type; temperature: 30 C
Saccharomyces cerevisiae [5] = test: protein stability index of tFT-peptide fusion in deletion strain of DAS1 (PSI (0-1 scale)); higher = more stable (slower turnover)
[6] = genetic background: cdc34-1, temperature: 37 C
[7] = genetic background: cdc53-1, temperature: 37 C
[8] = genetic background: das1 deletion, temperature: 30 C
[9] = genetic background: das1 deletion, temperature: 37 C
[10] = genetic background: doa10 deletion, temperature: 30 C
[11] = genetic background: wild type, temperature: 30 C
[12] = genetic background: wild type, temperature: 37 C
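Wherever protein stability index of tFT-peptide fusion (C-terminal peptide) is given: PSI is a weighted mean of sequencing reads over stability bins, variants kept only with over 10 reads, mCherry proximal and sfGFP distal, peptide attached via GGGS linker.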
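Wherever protein stability index of tFT-peptide fusion in deletion strain of DAS1 is given: PSI is a weighted mean of each variant's read distribution over the sorted stability bins, computed only for variants having over 10 reads in total.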
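Wherever protein stability index of tFT-peptide fusion in deletion strain of DOA10 is given: PSI per variant is the weighted mean of its sequencing read distribution over the sorted stability bins, counting only variants with over 10 reads summed across bins.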
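Wherever protein stability index of tFT-peptide fusion in wild type is given: PSI derived as read-weighted mean over the 8 sorting bins, only variants exceeding 10 total reads kept, mCherry placed adjacent to the peptide and sfGFP distal.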

Row | Sequence | protein stability index (Saccharomyces cerevisiae [1]) | protein stability index (Saccharomyces cerevisiae [2]) | also measured
1 | AIALPMCPLLLR | 0.231 | 0.632 | 
2 | AITHPMCPLLLR | 0.455 | 0.676 | 
3 | AITIPMCPLLLR | 0.236 | 0.639 | 
4 | AITLFMCPLLLR | 0.364 | 0.644 | 
5 | AITLPFCPLLLR | 0.138 | 0.667 | 
6 | AITLPKCPLLLR | 0.335 | 0.663 | 
7 | AITLPMCCLLLR | 0.139 | 0.602 | 
8 | AITLPMCPELLR | 0.663 | 0.674 | 
9 | AITLPMCPLDLR | 0.676 | 0.685 | 
10 | AITLPMCPLGLR | 0.644 | 0.683 | 
11 | AITLPMCPLLAR | 0.311 | 0.343 | 
12 | AITLPMCPLLGR | 0.603 | 0.607 | 
13 | AITLPMCPLLLRF | 0.121 | 0.615 | 
14 | AITLPMCPLLMR | 0.302 | 0.606 | 
15 | AITLPMCPLLQR | 0.626 | 0.671 | 
16 | AITLPMCPLLWR | 0.326 | 0.634 | 
17 | AITLPMCPLMLR | 0.212 | 0.611 | 
18 | AITLPMCPLPLR | 0.648 | 0.664 | 
19 | AITLPMCPQLLR | 0.64 | 0.688 | 
20 | AITLPMCPSLLR | 0.647 | 0.68 | 
21 | AITLPMCYLLLR | 0.0897 | 0.638 | 
22 | AITLPMIPLLLR | 0.115 | 0.595 | 
23 | AITLSMCPLLLR | 0.311 | 0.653 | 
24 | AITNPMCPLLLR | 0.488 | 0.658 | 
25 | AITRPMCPLLLR | 0.393 | 0.65 | 
26 | CHVSLPILLFFR | 0.0491 | 0.624 | 
27 | CLVSHPILLFFR | 0.149 | 0.617 | 

Row | Sequence | protein stability index (Saccharomyces cerevisiae [1]) | protein stability index (Saccharomyces cerevisiae [2]) | also measured
28 | CLVSLPALLFFR | 0.0784 | 0.664 | 
29 | CLVSLPIDLFFR | 0.648 | 0.698 | 
30 | CLVSLPIFLFFR | 0.0521 | 0.591 | 
31 | CLVSLPILLFAR | 0.161 | 0.239 | 
32 | CLVSLPILLFER | 0.569 | 0.625 | 
33 | CLVSLPILLFFRR | 0.0999 | 0.593 | 
34 | CLVSLPILLFRR | 0.43 | 0.66 | 
35 | CLVSLPILLFSR | 0.391 | 0.486 | 
36 | CLVSLPIRLFFR | 0.0878 | 0.658 | 
37 | CLVSLPYLLFFR | 0.0667 | 0.64 | 
38 | CLVSLTILLFFR | 0.185 | 0.263 | 
39 | CLVSPPILLFFR | 0.0809 | 0.651 | 
40 | CYVSLPILLFFR | 0.0495 | 0.582 | 
41 | EITLPMCPLLLR | 0.338 | 0.656 | 
42 | FVTRLDAIYFRI | 0.189 | 0.549 | 
43 | GHYMCSVGCWFR | 0.365 | 0.643 | 
44 | GLDMCSVGCWFR | 0.328 | 0.689 | 
45 | GLEMCSVGCWFR | 0.241 | 0.658 | 
46 | GLFMCSVGCWFR | 0.264 | 0.549 | 
47 | GLYFCSVGCWFR | 0.202 | 0.607 | 
48 | GLYMCDVGCWFR | 0.59 | 0.699 | 
49 | GLYMCSAGCWFR | 0.427 | 0.696 | 
50 | GLYMCSVGCLFR | 0.575 | 0.654 | 
51 | GLYMCSVGCNFR | 0.632 | 0.648 | 
52 | GLYMCSVGCWAR | 0.438 | 0.5 | 
53 | GLYMCSVGCWFRE | 0.453 | 0.641 | 
54 | GLYMCSVGCWFRM | 0.154 | 0.374 | 

Row | Sequence | protein stability index (Saccharomyces cerevisiae [1]) | protein stability index (Saccharomyces cerevisiae [2]) | also measured
55 | GLYMCSVGCWFRV | 0.155 | 0.402 | 
56 | GLYMCSVGCWFT | 0.423 | 0.484 | 
57 | GLYMCSVGCWMR | 0.253 | 0.575 | 
58 | GLYMCSVGCWPR | 0.64 | 0.67 | 
59 | GLYMCSVGCWQR | 0.629 | 0.677 | 
60 | GLYMCSVGFWFR | 0.364 | 0.545 | 
61 | GLYMCSVGPWFR | 0.656 | 0.688 | 
62 | GLYMCSVGQWFR | 0.636 | 0.671 | 
63 | GLYMCSVGWWFR | 0.499 | 0.557 | 
64 | GLYMCYVGCWFR | 0.223 | 0.423 | 
65 | GLYMQSVGCWFR | 0.287 | 0.678 | 
66 | GLYMTSVGCWFR | 0.275 | 0.709 | 
67 | GLYVCSVGCWFR | 0.2 | 0.573 | 
68 | HVTRLDAIYFRI | 0.343 | 0.702 | 
69 | IITLPMCPLLLR | 0.324 | 0.597 | 
70 | LVTRLDAIYFRI | 0.234 | 0.604 | 
71 | MVTRLDAIYFRI | 0.237 | 0.653 | 
72 | NLVSLPILLFFR | 0.0961 | 0.629 | 
73 | PDKRNHLIKLLN | 0.141 and 0.117 |  | protein stability index (Saccharomyces cerevisiae [3]; [6]): 0.537 ± 0.022; protein stability index (Saccharomyces cerevisiae [3]; [7]): 0.691 ± 0.03; protein stability index (Saccharomyces cerevisiae [3]; [8]): 0.648 ± 0.029; protein stability index (Saccharomyces cerevisiae [3]; [9]): 0.704 ± 0.0085; protein stability index (Saccharomyces cerevisiae [3]; [10]): 0.0937 ± 0.024; protein stability index (Saccharomyces cerevisiae [3]; [11]): 0.119 ± 0.0097; protein stability index (Saccharomyces cerevisiae [3]; [12]): 0.153 ± 0.031; protein stability index (Saccharomyces cerevisiae [4]): 0.194 ± 0.031; protein stability index (Saccharomyces cerevisiae [5]): 0.661 and 0.625
74 | PITLPMCPLLLR | 0.471 | 0.648 | 
75 | PSLRVLLPLYFR | 0.285 | 0.679 | 
76 | PVTRLDAIYFRI | 0.425 | 0.693 | 
77 | RSCRVLLPLYFR | 0.275 | 0.66 | 
78 | RSLDVLLPLYFR | 0.244 | 0.685 | 
79 | RSLFVLLPLYFR | 0.265 | 0.613 | 
80 | VRGAVGGWRLVG | 0.161 |  | protein stability index (Saccharomyces cerevisiae [3]; [6]): 0.572 ± 0.059; protein stability index (Saccharomyces cerevisiae [3]; [7]): 0.754 ± 0.032; protein stability index (Saccharomyces cerevisiae [3]; [8]): 0.629 ± 0.013; protein stability index (Saccharomyces cerevisiae [3]; [9]): 0.764 ± 0.016; protein stability index (Saccharomyces cerevisiae [3]; [10]): 0.116 ± 0.028; protein stability index (Saccharomyces cerevisiae [3]; [11]): 0.131 ± 0.028; protein stability index (Saccharomyces cerevisiae [3]; [12]): 0.23 ± 0.0039; protein stability index (Saccharomyces cerevisiae [4]): 0.228 ± 0.082; protein stability index (Saccharomyces cerevisiae [5]): 0.681
